According to article doi:10.1101/2025.05.03.652001:

Target: E. coli lipoic acid ligase (LplA) variant A48N on the W37V background (E. coli)
Assay: SEC-SAXS; SEC-SAXS of purified LplA variant with lipoyl-AMS; DENSS ab initio envelope fitted with the major conformer; high protein concentrations required for SAXS; dimer model generated by AlphaFold3

E. coli lipoic acid ligase (LplA) variant A48N on the W37V background (enzyme)
stoichiometry N: 2
